For test [1], the target named is T1, Heat-denatured BSA (bovine serum albumin autoclaved for 15 minutes) (bovine, UniProt P02769 25-607).
T1 construct: also called heat-denatured BSA solution; reagent for detection
The test is described as follows: turbidity (OD550), heat-denatured BSA mixed with rising concentration of the Fibrinogen α peptide.

Test [2] concerns the target T1, Heat-denatured BSA (bovine serum …). The test is described as follows: turbidity (OD550), Hill plot analysis. On the procedure: (§1) The Kd value and Hill coefficient were calculated for the respective samples.
For test [3] the target is unchanged. As to the kind of experiment: turbidity (OD550), heat-denatured BSA mixed with rising concentration of the kininogen fragment. The procedure: In the preparation, the sample was mixed so as to obtain a final concentration of the respective peptides in the mixed solutions of 0 to 80 μM.
as §1

Test [4] shares this target. As to the kind of experiment: turbidity (OD550), heat-denatured BSA mixed with rising concentration of the Factor XIII peptide.
The target in test [5] is T2, Heat-denatured ovoalbumin (OA) (UniProt P01012 2-386).
T2 construct: 1.0 w/v % OA, pH adjusted to 5 to 7 with sodium hydroxide, autoclaved at 115 C for 15 min; also called Heat-denatured OA; denatured OA
T2 sequence (looked up): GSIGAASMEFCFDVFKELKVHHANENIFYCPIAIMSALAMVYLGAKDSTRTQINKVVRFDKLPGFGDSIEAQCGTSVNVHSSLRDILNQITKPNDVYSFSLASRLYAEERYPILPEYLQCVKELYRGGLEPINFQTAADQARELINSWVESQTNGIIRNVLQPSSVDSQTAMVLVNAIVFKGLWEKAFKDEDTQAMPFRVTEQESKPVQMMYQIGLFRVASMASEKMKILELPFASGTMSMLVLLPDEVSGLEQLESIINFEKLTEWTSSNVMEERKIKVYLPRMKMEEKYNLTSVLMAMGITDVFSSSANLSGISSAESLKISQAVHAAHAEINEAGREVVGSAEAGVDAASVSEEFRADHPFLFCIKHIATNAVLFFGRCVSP
As to the kind of experiment: turbidity (OD550), Hill plot analysis. The procedure:
(§2) In the preparation, the sample was mixed so as to obtain a final concentration of the partial ACTH peptide in the mixed solution of 0 to 80 μM.
(§3) The thus-prepared mixed solutions were measured for absorbance at the wavelength of 550 nm (OD550) with a spectrophotometer UV-2500PC (Shimadzu Corporation).

Test [6] addresses T1, Heat-denatured BSA (bovine serum …). The test is described as follows: turbidity (OD550) against peptide concentration, Hill plot analysis. On the procedure: (§4) In this preparation, the sample was mixed so as to obtain a final concentration of the partial ACTH peptide in the mixed solution of 0 to 150 μM.
(§5) The thus-prepared mixed solutions were measured for absorbance at the wavelength of 550 nm (OD550) in a spectrophotometer UV-2500PC (Shimadzu Corporation).

Test [7] addresses T3, Non-denatured BSA (bovine, UniProt P02769 25-607).
T3 construct: BSA solution that was not heated; also called non-denatured BSA solution; BSA heat-denatured for 0 min
Described as above. On the procedure: as §4, §5

The target in test [8] is T3, Non-denatured BSA. As to the kind of experiment: turbidity (OD550), Hill plot analysis; heat denaturation period 0 min. On the procedure: (§6) The Kd value and Hill coefficient of BSA at respective heat denaturation periods were calculated.
In test [9] the target is T4, BSA heat-denatured for 5 minutes (bovine, UniProt P02769 25-607).
T4 construct: Autoclaved at 110 C for 5 min; also called heat denaturation period 5 min
As to the kind of experiment: turbidity (OD550), Hill plot analysis; heat denaturation period 5 min. The procedure: as §6

For test [10], the target named is T1, Heat-denatured BSA (bovine serum …). The test is described as follows: turbidity (OD550), Hill plot analysis; control solution without serum. On the procedure: (§7) In the preparation, the serum-based sample was mixed so as to adjust a final concentration of the partial ACTH peptide of to 0 to 80 μM and adjust a final concentration of serum of to an equivalent to 100-fold dilution in the mixed solution. For a control, a mixed solution was also prepared without serum (hereinafter referred to as “control solution”).
as §3

The target is the same in test [11]. As to the kind of experiment: turbidity (OD550), Hill plot analysis; heat denaturation period 15 min. The procedure: as §6
The target of test [12] is T5, BSA heat-denatured for 60 minutes (bovine, UniProt P02769 25-607).
T5 construct: Autoclaved at 110 C for 60 min; also called heat denaturation period 60 min
The test is described as follows: turbidity (OD550), Hill plot analysis; heat denaturation period 60 min. The procedure: as §6

The target of test [13] is T1, Heat-denatured BSA (bovine serum …). The test is described as follows: turbidity (OD550), Hill plot analysis; table row for nucleic acid 'No'. On the procedure:
(§8) A comparative mixed solution was prepared by adding to the mixed solution a salmon sperm DNA (trade name: Sonicated Salmon Sperm DNA, BioDynamics Laboratory Inc.) as nucleic acid (final concentration of nucleic acid: 10 μM).
(§9) The Kd value and Hill coefficient were calculated for the mixed solutions.

Test [14] addresses T6, BSA heat-denatured for 120 minutes (bovine, UniProt P02769 25-607).
T6 construct: Autoclaved at 110 C for 120 min; also called heat denaturation period 120 min
As to the kind of experiment: turbidity (OD550), Hill plot analysis; heat denaturation period 120 min. On the procedure: as §6

The target of test [15] is T1, Heat-denatured BSA (bovine serum …). The test is described as follows: turbidity (OD550), Hill fit with competitive inhibition term; serum at 100-fold dilution. The procedure:
as §7, §3

The target of test [16] is T4, BSA heat-denatured for 5 minutes. The test is described as follows: turbidity (OD550), BSA heat-denatured for 5 min mixed with rising concentration of the partial ACTH peptide. On the procedure:
as §6

Test [17] addresses T1, Heat-denatured BSA (bovine serum …). The test is described as follows: turbidity (OD550), BSA heat-denatured for 15 min mixed with rising concentration of the partial ACTH peptide. On the procedure:
as §6

In test [18] the target is T5, BSA heat-denatured for 60 minutes. The test is described as follows: turbidity (OD550), BSA heat-denatured for 60 min mixed with rising concentration of the partial ACTH peptide. The procedure: as §6
Test [19] addresses T6, BSA heat-denatured for 120 minutes. As to the kind of experiment: turbidity (OD550), BSA heat-denatured for 120 min mixed with rising concentration of the partial ACTH peptide. On the procedure:
as §6

Test [20] has as its target T7, Heat-denatured human serum albumin (HSA) (human, UniProt P02768 25-609).
T7 construct: 1.0 w/v % HSA in ultrapure water, autoclaved at 115 C for 15 min; also called Heat-denatured HSA; denatured HSA
The test is described as follows: turbidity (OD550), heat-denatured HSA (0.2 w/v %) mixed with rising concentration of the partial ACTH peptide. The procedure: as §2, §3

Test [21] has as its target T1, Heat-denatured BSA (bovine serum …). As to the kind of experiment: turbidity (OD550), Hill plot analysis; table row for nucleic acid 'Yes' (salmon sperm DNA, 10 µM); with nucleic acid (Yes). On the procedure: as §8, §9
Test [22] shares this target. The test is described as follows: turbidity (OD550), heat-denatured BSA mixed with rising peptide concentration; fitted curve of FIG. 1 superimposed.
For test [23] the target is unchanged. The test is described as follows: turbidity (OD550) of mixtures of heat-denatured BSA (0.2 w/v %) with rising concentration of the partial ACTH peptide. On the procedure:
as §4, §5

Test [24] shares this target. As to the kind of experiment: turbidity (OD550), heat-denatured BSA mixed with rising concentration of the partial ACTH peptide, without nucleic acid. The procedure:
as §8, §9

Test [25] has the same target. The test is described as follows: turbidity (OD550), heat-denatured BSA mixed with rising concentration of the partial ACTH peptide, with salmon sperm DNA (10 µM). On the procedure:
as §8, §9

Test [26] has the same target. The test is described as follows: turbidity (OD550), heat-denatured BSA mixed with rising concentration of α-endorphin. On the procedure:
In the preparation, the sample was mixed so as to obtain a final concentration of the respective peptides in the mixed solutions of 0 to 150 μM.

Test [27] shares this target. The test is described as follows: turbidity (OD550), heat-denatured BSA mixed with rising concentration of C3f.

T1 sequence (P02769 25-607 limits assumed): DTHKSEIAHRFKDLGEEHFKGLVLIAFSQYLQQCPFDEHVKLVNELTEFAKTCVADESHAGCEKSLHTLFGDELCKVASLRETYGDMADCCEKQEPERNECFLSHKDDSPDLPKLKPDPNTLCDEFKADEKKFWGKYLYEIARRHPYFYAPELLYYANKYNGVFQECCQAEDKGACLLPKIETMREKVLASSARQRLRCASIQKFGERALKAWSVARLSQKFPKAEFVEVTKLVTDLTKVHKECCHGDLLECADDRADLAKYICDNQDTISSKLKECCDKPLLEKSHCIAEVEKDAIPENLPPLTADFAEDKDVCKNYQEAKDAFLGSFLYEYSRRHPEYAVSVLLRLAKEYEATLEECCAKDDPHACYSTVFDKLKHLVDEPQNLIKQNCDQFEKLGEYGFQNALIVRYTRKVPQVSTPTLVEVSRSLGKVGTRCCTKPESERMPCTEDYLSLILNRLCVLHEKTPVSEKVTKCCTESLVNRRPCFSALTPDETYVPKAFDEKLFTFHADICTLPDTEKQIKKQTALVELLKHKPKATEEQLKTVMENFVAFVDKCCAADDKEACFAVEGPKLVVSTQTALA
T4 sequence (P02769 25-607 limits assumed): as above
T6 sequence (P02769 25-607 limits assumed): as above
T3 sequence (P02769 25-607 limits assumed): as above
T5 sequence (P02769 25-607 limits assumed): as above

For DEAGSEADHEGTHSTKRGHAKSRPV [Fibrinogen α (neutral peptide)], the binding result in test [1] is reported as “no binding (tested: 80 µM)”.

B1: fragment of kininogen (positions 439 to 457) (peptide)
peptide: HNLGHGHKHERDQGHGHQR
notes: also called Kininogen (439-457); kininogen fragment
In [2], B1 showed a Kd of 45 µM. The “EC50 (read off the curve)” value in test [3] is roughly 40 µM.
For AVPPNNSNAAEDDLPTVELQGVVPR [Factor XIII (acidic peptide)], the binding result in test [4] is given as “no binding (tested: 80 µM)”.
For SYSMEHFRWGKPVGKKRRPVKVYP (also called basic peptide of interest) [partial ACTH peptide consisting of the amino acids of positions 1 to 24 of ACTH], the Kd in test [5] was determined as 67 µM; in test [6], 30 µM; with Non-denatured BSA [7], 290 µM; with Non-denatured BSA [8], 290 µM; in test [9] it was 33 µM; in [10], 25 µM. Moreover, the Kd was 30 µM in [11]; 28 µM in [12]; 40 µM in test [13]; 33 µM in test [14]; 29 µM in [15]; 30 µM in test [21]. Further, the “EC50 (read off the curve)” value in test [16] was roughly 30 µM; in [17], roughly 30 µM; in [18] it was roughly 30 µM; in test [19], roughly 30 µM; in test [20], 40 to 50 µM; in test [22], 20 to 30 µM. The “EC50 (read off the curve)” value is roughly 30 µM in test [23], roughly 30 µM in test [24] and roughly 40 µM in test [25].

B2: fragment of ITIH4 (positions 611 to 642) (peptide)
peptide: GESRNRNVHSGSTFFKYYLQGAKIPKPEASFS
notes: also called ITIH4 (611-642); ITIH4 fragment
Molecule B2 yielded a Kd in test [2] of 70 µM.

B3: α-endorphin (peptide)
peptide: YGGFMTSEKSQTPLVT
notes: Neutral comparative peptide, Peptide Institute, Inc; also called neutral peptide, α-endorphin
With B3, the binding result in test [26] is “no binding (tested: 150 µM)”.
Consider HWESASLL (Acidic peptide from Biologica Co) [C3f (acidic peptide)], for which the binding result in test [27] was “no binding (tested: 80 µM)”.

As a reminder, the Kd is the constant that tells how readily two partners part at equilibrium. In general, EC50 (read off the curve) refers to the concentration giving half of the maximal effect.

These data come from US20170089928A1 (SYSMEX, published 2017).
